Our source for the Kd, half-life and microsomal CLint values is patent US12539335B2, “Tricyclic polypeptide conjugated drug and use thereof” (CONJUSTAR (ZHUHAI) BIOLOGICS CO., LTD., priority 2021, dated 2026).

The target in one data set is T1, Human Nectin-4 (Homo sapiens, UniProt Q96NY8).
T1 construct: purchased GE Healthcare 1006-72
T1 sequence (Q96NY8 32-510): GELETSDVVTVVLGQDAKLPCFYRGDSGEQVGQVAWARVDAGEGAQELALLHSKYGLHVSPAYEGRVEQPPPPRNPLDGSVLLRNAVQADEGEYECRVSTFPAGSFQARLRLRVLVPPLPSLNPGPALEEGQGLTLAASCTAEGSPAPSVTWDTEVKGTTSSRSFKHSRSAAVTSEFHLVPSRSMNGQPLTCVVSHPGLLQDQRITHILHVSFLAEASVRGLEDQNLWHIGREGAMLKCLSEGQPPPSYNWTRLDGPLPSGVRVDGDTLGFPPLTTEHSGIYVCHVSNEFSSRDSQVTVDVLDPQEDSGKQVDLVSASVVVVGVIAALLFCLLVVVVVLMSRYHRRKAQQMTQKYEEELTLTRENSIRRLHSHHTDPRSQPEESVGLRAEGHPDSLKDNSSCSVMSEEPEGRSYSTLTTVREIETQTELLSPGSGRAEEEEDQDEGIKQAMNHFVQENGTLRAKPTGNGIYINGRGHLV
The data set can be described thus: Binding capacity to Nectin-4 protein (SPR, Biacore 8K). The method, then: Test Example 1. Binding Capacity Test of the Compounds of the Present Invention to Nectin-4 Protein
To detect the affinity of the compound to be tested to the target protein Nectin-4 using the SPR method.
• Biacore 8K (GE Healthcare) • 96-well Plate (Cat #650101, greiner bio-one) • CM5 chip (Cat #BR-1005-30, GE Healthcare) • Amine Coupling Kit (Cat #BR-1000-50, GE Healthcare) • EDC • NHS • 1 M ethanolamine • 10 mM sodium acetate pH 4.5 (Cat #BR-1003-50, GE Healthcare) • DMSO (Cat #D4540, Sigma) • P20 (Cat #BR-1000-54, GE Healthcare) • PBS (Cat #BR-1006-72, GE Healthcare) • Nectin-4 (Cat #1006-72, GE Healthcare) 3. Experimental Protocol
In this experiment, the amino coupling method was used. The target protein Nectin-4 was directly immobilized on the CM5 chip using Biacore 8K. […] The final data were subjected to Kinetics fitting analysis based on a 1:1 model using Biacore Insight Evaluation Software (V 2.0.15.12933).
1) Preparation of the buffer: 10 mM PBS, pH 7.4, 137 mM NaCl, 2.7 mM KCl, 5% DMSO, and 0.05% P20.
2) Activation of the CM5 chip: The CM5 chip was activated with 400 mM EDC and 100 mM NHS at a flow rate of 10 μL/min for 420 seconds.
3) Coupling of the target protein: The target protein was diluted to 10 μg/mL with 10 mM sodium acetate (pH 4.5) and coupled at a flow rate of 10 μL/min for 284 s. The 1 #, 2 #, and 3 #channels on the chip were used in the experiment, and the coupling results were 1639.9RU, 1747.8RU, and 1702.2RU, respectively.
4) Blocking of the CM5 chip: The CM5 chip was blocked with 1 M ethanolamine at a flow rate of 10 μL/min for 420 seconds.
5) Analyte concentration: The compound to be tested was diluted with the buffer. The compound to be tested was diluted from 100 nM to 0.78 nM in a 2-fold gradient.
6) Sample injection analysis: Each concentration of the working solution of the compound to be tested corresponded to one cycle, with a flow rate of 30 μL/min for binding for 180 seconds and dissociating for 180 seconds. The last cycle was a 5% DMSO solvent correction cycle.
7) All results were subjected to kinetics fitting analysis based on a 1:1 model. […]
A general note: In SPR one partner is held on a chip, and binding of the other changes the refractive index at the surface.

Data set [1] can be described thus: Metabolic stability in kidney S9, humans. The conditions noted are these: human. Format: in vitro ADME. As to the method: Test Example 8: Metabolic Stability of the Compounds of the Present Invention in Kidney S9 from Mice, Rats, Cynomolgus Macaques, and Humans
To investigate the metabolic stability of the compounds of the present invention in kidney S9 from mice, rats, Cynomolgus macaques, and humans.
Materials: Kidney S9 from CD-1 mice, SD rats, Cynomolgus macaques, and humans were purchased from BioIVT or XenoTech LLC and stored in a −80° C. refrigerator.
Experimental procedure: Eight 96-well plates, designated T0, T5, T15, T30, T45, T60, Blank, and NCF60, were prepared. The first six incubation plates corresponded to reaction time points of 0, 5, 15, 30, 45, and 60 minutes, respectively. No test sample or control compound was added to the Blank plate.
The T0, T5, T15, T30, T45, and T60 plates were added with a 2 μL working solution of the test sample (10 mM of a solution of the compound to be tested in DMSO, diluted to 100 μM with 100% acetonitrile) and 100 μL of a S9 working solution (kidney S9 protein concentration of 1.0 mg/mL), and the Blank plate was only added with the S9 working solution. The above incubation plates were then placed in a 37° C. water bath for pre-incubation for about 10 minutes.
At the end of the pre-incubation, 98 μL of an auxiliary enzyme working solution was added to each sample well except the TO plate to start the reaction. […]

Data set [2] in a line: Stability in plasma, humans. Format: in vitro ADME. The conditions noted are these: human, 37° C. As to the method: Test Example 9: Stability Analysis of the Compounds of the Present Invention in Plasma from Different Species
To test the stability of the compounds of the present invention in plasma from SD rats, Cynomolgus macaques, and humans.
The corresponding incubation plates, including T0, T10, T30, T60, T120, and T240 incubation plates, were added with a 2 μL working solution of the compound to be tested (100 μM). Three parallel wells were prepared for each sample. Then, 98 μL of blank plasma from SD rats, Cynomolgus macaques, and humans was added to the corresponding incubation plates to which the working solution had been added. All samples were incubated in a 37° C. water bath. […] At the end of each incubation time point, the corresponding incubation plate was removed, added with stop buffer, precipitated, and centrifuged for 20 minutes. Then, 150 μL of the supernatant was analyzed by the LC-MS/MS method. The concentration of the compound to be tested in the sample was semi-quantitatively determined by the liquid chromatography-tandem mass spectrometry (LC-MS/MS) method.

Counter-ions that a name gives are not always drawn. Starred links: 1 amine or outer side, 2 acyl side, 3 side chain; linkers in the order of their positions; H or OH if unused. Positions of bridges follow the written chain, without caps; N, C: chain ends. Non-standard residues stand in square brackets, D forms with d. Residues, ends and D or L forms follow the SMILES beside them. Chains are numbered I, II in the order given. *: point of attachment. TATA = O=C(CC[*:1])N1CN(C(=O)CC[*:2])CN(C(=O)CC[*:3])C1; Dolaproine = CO[C@@H]([C@@H]1CCCN1)[C@@H](C)C(=O)O; Dil = CC[C@H](C)[C@H](NC)[C@@H](CC(=O)O)OC; 1Nal = N[C@@H](Cc1cccc2ccccc12)C(=O)O; X2 = O=C(CCCC(=O)[*:2])NCCC(=O)[*:1]; PABC = O=C(OCc1ccc(N[*:1])cc1)[*:2]; X1 = C[C@@H](N*)[C@@H](O)c1ccccc1; Hyp = O=C(O)[C@@H]1C[C@@H](O)CN1; hArg = N=C(N)NCCCC[C@H](N)C(=O)O; Cit = NC(=O)NCCC[C@H](N)C(=O)O; Pen = CC(C)(S)[C@H](N)C(=O)O; NMeV = CN[C@H](C(=O)O)C(C)C; Sar = CNCC(=O)O

The term Kd denotes a measure of binding affinity in units of concentration. The half-life is the time needed for the level to fall by half in the phase considered. A higher half-life goes with slow decline. One may read the microsomal CLint as a measure of how fast metabolising enzymes remove a compound, apart from limits set by blood flow. Higher therefore signals faster metabolism. The molecule `CC[C@H](C)[C@@H]([C@@H](CC(=O)N1CCC[C@H]1[C@H](OC)[C@@H](C)C(=O)N[C@H](C)[C@@H](O)c1ccccc1)OC)N(C)C(=O)[C@@H](NC(=O)[C@H](C(C)C)N(C)C(=O)OCc1ccc(NC(=O)[C@H](CCCNC(N)=O)NC(=O)[C@@H](NC(=O)CCCC(=O)NCCC(=O)N(C)CC(=O)N(C)CC(=O)N(C)CC(=O)N(C)CC(=O)N(C)CC(=O)N(C)CC(=O)N(C)CC(=O)N(C)CC(=O)N(C)CC(=O)N(C)CC(=O)N[C@H]2CCCCNC(=O)C[C@@H](C(=O)N[C@H]3CSCCC(=O)N4CN5CN(C4)C(=O)CCSC(C)(C)[C@H](NC(=O)[C@@H](CC(=O)O)NC(=O)[C@H](Cc4cccc6ccccc46)NC(=O)[C@@H]4CCCN4C3=O)C(=O)N[C@@H](CCSC)C(=O)N[C@@H](CCCCNC(=N)N)C(=O)N[C@@H](CC(=O)O)C(=O)N[C@@H](Cc3c[nH]c4ccccc34)C(=O)N[C@@H](CO)C(=O)N[C@@H]([C@@H](C)O)C(=O)N3CCC[C@H]3C(=O)N3C[C@H](O)C[C@H]3C(=O)N[C@@H](Cc3c[nH]c4ccccc34)C(=O)N[C@H](C(N)=O)CSCCC5=O)NC(=O)CN(C)C2=O)C(C)C)cc1)C(C)C` [Acetate salt of PDC_2] (I: [Sar][Sar][Sar][Sar][Sar][Sar][Sar][Sar][Sar][Sar]K[Sar]DCP[1Nal][dD][Pen]M[hArg]DWSTP[Hyp]WC-NH2 / II: V[Cit][PABC][NMeV]V[Dil][Dolaproine]-X1; lactam I:11-I:13; linker I:14-I:18-I:28 via TATA; linker I:N-II:N via X2) gave a Kd at Human Nectin-4 of 0.43 nM. In data set [1], this molecule gave a half-life at 1 μM of more than 2.42 h and a microsomal CLint at 1 μM of less than 9.6 µL/min/mg. This molecule returned a half-life at 2 μM in data set [2] of more than 9.63 h.
